The values that follow come from PMC4878873.

The target in experiment [1] is Cul1^d-N8/Rbx1^∆RING (human) (UniProt Q13616).
Experiment [2] has the same target. This is another data set of the same source.
The target of experiment [3] is DDB1. Nature of the experiment: anti-Flag immunoprecipitation, SILAC mass spectrometry. Particulars: HEK293T; mutant in light medium, wild type in heavy medium; read off a plot.
The target in experiment [4] is CUL2. Described as above. Conditions: HEK293T; mutant in light medium, wild type in heavy medium; read off a plot.
In experiment [5] the target is CUL3. Described as above. Conditions: HEK293T; mutant in light medium, wild type in heavy medium; read off a plot.
The target in experiment [6] is RBX1. Described as above. Particulars: HEK293T; mutant in light medium, wild type in heavy medium; read off a plot.
Experiment [7] deals with CUL4A. Described as above. Particulars: HEK293T; mutant in light medium, wild type in heavy medium; read off a plot.
In experiment [8] the target is Elongin B. The description is as above. Conditions: HEK293T; mutant in light medium, wild type in heavy medium; read off a plot.
The target in experiment [9] is Elongin C. Described as above. Particulars: HEK293T; mutant in light medium, wild type in heavy medium; read off a plot.
The target in experiment [10] is CUL4B. The description is as above. Particulars: HEK293T; mutant in light medium, wild type in heavy medium; read off a plot.
For experiment [11], the target named is CUL1. The description is as above. Conditions: HEK293T; mutant in light medium, wild type in heavy medium; read off a plot.
In experiment [12] the target is SKP1. Described as above. Conditions: HEK293T; mutant in light medium, wild type in heavy medium; read off a plot.
The target of experiment [13] is COP9-Signalosome (CSN), wild type (human) (UniProt Q13098).

unlabeled Cul1/Rbx1, sequence (Q13616 whole entry): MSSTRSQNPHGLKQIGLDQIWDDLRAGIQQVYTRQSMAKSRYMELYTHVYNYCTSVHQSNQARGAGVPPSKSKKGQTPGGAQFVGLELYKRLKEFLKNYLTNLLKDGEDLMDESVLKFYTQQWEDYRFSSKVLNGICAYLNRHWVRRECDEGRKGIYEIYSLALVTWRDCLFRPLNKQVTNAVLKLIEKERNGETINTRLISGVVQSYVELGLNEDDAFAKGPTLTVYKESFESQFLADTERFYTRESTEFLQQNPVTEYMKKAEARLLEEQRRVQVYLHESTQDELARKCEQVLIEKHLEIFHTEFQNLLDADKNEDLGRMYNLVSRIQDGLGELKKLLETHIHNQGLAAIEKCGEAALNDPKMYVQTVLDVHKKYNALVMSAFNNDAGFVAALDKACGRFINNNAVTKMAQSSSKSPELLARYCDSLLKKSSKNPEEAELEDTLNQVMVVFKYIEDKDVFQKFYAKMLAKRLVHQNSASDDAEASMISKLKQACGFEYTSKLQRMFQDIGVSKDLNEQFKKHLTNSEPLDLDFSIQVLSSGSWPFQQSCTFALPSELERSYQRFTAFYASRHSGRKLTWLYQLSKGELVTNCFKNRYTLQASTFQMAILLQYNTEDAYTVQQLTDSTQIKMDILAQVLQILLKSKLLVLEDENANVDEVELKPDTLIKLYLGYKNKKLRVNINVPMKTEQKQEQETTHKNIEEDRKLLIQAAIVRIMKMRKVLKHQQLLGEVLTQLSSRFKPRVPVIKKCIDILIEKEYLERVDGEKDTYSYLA
unlabeled Cul1/Rbx1, sequence (P62877 whole entry): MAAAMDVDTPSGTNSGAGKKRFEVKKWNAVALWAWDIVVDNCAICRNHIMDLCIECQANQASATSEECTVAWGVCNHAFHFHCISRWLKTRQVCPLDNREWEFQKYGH

Regarding “COP9-Signalosome (CSN), wild type (from UniProt Q13098 1-491; P61201 1-443; Q9UNS2 1-423; Q9BT78 1-406; Q92905 1-334; Q7L5N1 1-327; Q9H9Q2 1-264; Q99627 1-209) (complex)”, the KM of deneddylation of Cul1-N8/Rbx1^∆RING (with the sortase sequence, not dansylated) by CSN in experiment [1] came to 5 nM.
Broadly, the Kd is a measure of binding affinity in units of concentration. A low value points to higher affinity. “CSN^5E76A (from UniProt Q13098 1-491; P61201 1-443; Q9UNS2 1-423; Q9BT78 1-406; Q92905 1-334; Q7L5N1 1-327; Q9H9Q2 1-264; Q99627 1-209) (complex)” had a Kd in experiment [2] of 13 nM.
As for “Flag-tagged wild type Csn5 (from UniProt Q92905) T103I”, the ratio to parent in experiment [3] was found to be 0.78; in experiment [4], 0.83; in experiment [5], 0.75; in experiment [6] it was 0.92; in experiment [7] it was 0.57; in [8], 0.85. Moreover, the ratio to parent in experiment [9] is 0.8; in experiment [10] it was 0.63; in experiment [11], 0.9; in [12], 0.88.
In general, IC50 refers to the concentration that gives 50% inhibition. A higher IC50 goes with lower potency. In experiment [13], “unlabeled Cul1/Rbx1 (from UniProt Q13616 1-776; P62877 1-108) (complex)” had an IC50 of 390 nM.
